These results are taken from PMC3987903.

For the assay, the target named is GST-LT-Ag (HPD to AAA) mutant (JC virus (JCV)) (UniProt P03072). Briefly: pull-down.

Sequence of human heat shock protein Hsp70 (P0DMV8 whole entry): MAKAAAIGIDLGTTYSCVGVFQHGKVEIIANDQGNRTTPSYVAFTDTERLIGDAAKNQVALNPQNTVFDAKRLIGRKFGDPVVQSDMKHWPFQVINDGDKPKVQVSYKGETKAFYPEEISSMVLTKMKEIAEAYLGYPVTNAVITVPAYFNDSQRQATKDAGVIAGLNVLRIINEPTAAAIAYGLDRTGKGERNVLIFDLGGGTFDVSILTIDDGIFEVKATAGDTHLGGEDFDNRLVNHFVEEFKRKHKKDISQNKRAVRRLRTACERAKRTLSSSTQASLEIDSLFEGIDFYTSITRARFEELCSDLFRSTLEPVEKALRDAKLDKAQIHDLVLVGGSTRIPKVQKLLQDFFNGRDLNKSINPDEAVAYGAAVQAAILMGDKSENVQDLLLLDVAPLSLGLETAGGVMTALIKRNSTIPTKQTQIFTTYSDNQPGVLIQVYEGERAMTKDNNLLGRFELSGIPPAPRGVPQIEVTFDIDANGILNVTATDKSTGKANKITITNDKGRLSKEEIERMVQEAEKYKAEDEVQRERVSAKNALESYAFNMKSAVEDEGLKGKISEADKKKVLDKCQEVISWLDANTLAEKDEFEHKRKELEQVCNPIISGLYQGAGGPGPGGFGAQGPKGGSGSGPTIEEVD

“human heat shock protein Hsp70 (from UniProt P0DMV8 1-641) (natural protein)” had a reduction of the interaction against WT of over 50%.
